Experimental findings from the RNAGym collection of RNA variant scans (doi:10.1073/pnas.2313332121) are described below.

To fix the notation:
B1: TPR t1 (parent)
chain: GACCAAUCUGCCCUCAGAGCUCGAGAACAUCUUCGGAUGCAGAGGAGGCAGGCUUCGGUGGCGCGAUAGCGCCAACGUCCUCAACCUCCAAUGCAUCCCACCACAUGAUGAUGCCUGAAGAGCCUUGGUUUUUUG

This data set covers variants of B1. Put plainly: polymerase ribozyme fitness, log enrichment relative to wild type (log ratio); higher = more active; in vitro selection for triplet polymerase activity. The essentials:
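Each subunit of a heterodimeric triplet polymerase ribozyme was represented by a PCR-built, transcribed mutant library that underwent triplicate single-round in vitro selection with frozen incubation at −7 °C. Extended constructs were recovered by gel excision, streptavidin-bead capture and RT-PCR, and Illumina sequencing of input and output libraries kept genotypes with ≥10 input reads and ≥1 read per output. Fitness is the logarithm of genotype enrichment relative to wild-type enrichment, from inverse-variance-weighted replicate averages, with a logarithm base of 2.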
For the variant GACCAAUCUGCCCUCAGAGCUCGUGAACAUCUUCGGAUGCAGAGGAGGCAGGCUUCGGUGGCGCGAUAGCGCCAACGUCCUCAUCCUCCAAUGCAUCCCACCACAUGAUGAUGUCUGAAGAACCUUGGUUUCUUG, the “polymerase ribozyme fitness (log ratio)” value is -6.39.
Regarding GACCAAUCUGCCCUCAGAGCUCGGGAACAUCUUCGGAUGCAGAGGAGGCAGGCUUCGGUGGCGCGAUAUCGCCAACGUCCUCAACCUCCAAUGCAUCCCACCACAUGAUGAUGCCUGAAGAGCCUUGGUUUUUUG, the “polymerase ribozyme fitness (log ratio)” value is -0.509.
The figure for GACCAAUCUGCCCUCAGAGCUCGGGAACAUCUUCGGAUGCAGAGGAGGCAGGCUUCGGUGGCGCGAUAACGCCAACGUCCUCAACCUCCAAUGCAUCCCACCACAUGAUGAUGCCUGAAGAGCCUUGGUUUUUUG is -4.71; for GACCAAUCUGCCCUCAGAGCUCGUGAUUAUCUUCGUAUGCAGAGGAGGCAGGCUUCGGUGGCGCGAUAGCGCCAACGUCCUCAACCUCCAAUGCAUCCCACCACAUGAUGUUGCCUGAAGAGCCUUGGUUUUUUG it is -5.92; for GACCAAUCUGCCCUCAGAGCUCGGGAACAUCUUCGGAUGCAGAGGAGACAGGCUUCGGUGGCGUGAUAGCGCCAACGUCCCCAACCUCCAAUGCAUCCCACCACAUGUUGAUGCCUGAACAGCCUUGGUUUUUUG it is -6.
Take GACCAAUCUGCCCUCAGAGCUCGUGAACAUCUUCGGAUGCAUUGGAGGCAGGCUUCGGUGGCGCGAUAGCGCCAACGUCCUCAACCUCCAAUGGAUCCCACCACAUGAUGAAGCCUGAAGAGCCUUGGAUUUUUG: the “polymerase ribozyme fitness (log ratio)” value is -7.92.
The result for GACCAAUCUGCCCUCAGAGCUCGGGAACAUCUUCGGAUGCAGAGGAGGCAGGCUUCGGUGGCGCGAUAGCGCCAACGUCCUCAAACUCCAAUGCAACCCACCACAUGAUGAUGCCUGAAGAGCCUUGGUUUUUUG reads -3.35; that for GACCAAUCUGCCCUCAGAGCUCGGGAACAUCUUCGGAUGCAGAGGAGGCAGGCUUCGGUGGCGCGAUAGCGCCAACGUCCUCAACCUCCAAUGCAUCCCACUACAUGAUGAUGCCUGAAGAGCCUUGGUUUUUUG, -3.7; that for GACCAAUCUGCCCUCAGAGCUCGUGAACAUCUUCGGAUGCAGAGGAGGCAGGCUUCGGUGGCGCGAUAGCGCCAACGUCCUCAACCUCCAAUGUAUCCCACCUCAUGAUCAUGCCUGAACAGCCUUGGUUAUUUG, -5.54.
As to GACCAAUCUGCCCUCAGAGCUCGGGAACAUCUUCGGAUGCAGAGGAGGCAGGCUUCGGUGGCGCGAUAGCGCCAACGUCCUGAUCCUCCAAUGCAUCCCACCACACGAUGAUGCCUGAAGAGCCUUGGUUUUUUG, the “polymerase ribozyme fitness (log ratio)” value was -2.06.
The result for GACCAAUCUGCCCUCAGAGCUCGGGAACAUCUUCGGAUGCAGAGGAGGCAGGCUUCGGUGGCGCGAUAGGGCCAACGUCCUCAACCUCCAAUGCAUACCACCACAUGAUGAUGCCUGAAGGGCCUUGGUUUUUUG reads -5.13; that for GACCAAUCUGCCCUCAGAGCUCGGGAACAUCUUCGGAUGCAGAGGAGGCAGGCAUCGGUGGCGCGAUUGCACCAACGUCCUCAACCUCCAAUGCAUCCCACCACAUGAUGAAGCCUGAAGAGCCUUGGUUUUUUG, -8.22.
The figure for GACCAAUCUGCCCUCAGAGCUCGGGAACAUCUUCGGAUGCAGAGGAGGCAGGCUUCGGUGUCGCGAUAGCGCCAACGUCCUCAACCUCCAAUGCAUCCCACCACAUGAUGAUGCCUGAAGAGCCUUGGUUUUUUG is -1.44; for GACCAAUCUGCCCUCAGAGCUCGGGAACAUCUUCGGAUGCAGAGGAAGCAGGCUUCGGUGGCGCGAUAGCGCCAACGUCCUCAACCUCCAAUGCAUCCCACCACAUGAUGAUGCCUGAAGAGCCUUGGUUUUUUG it is -2.63.
The figure for GACCAAUCUGCCCUCAGAGCUCGGGAACAUCUUCGGAUGCAGAGGAGGCAGGCUUCGGUGGCGCGAUAGCGCCAACGUCCUCAACCUCCAAUGCAUCCCACCACAUGAUGAUACCUGAAGAGCCUUGGUUUUUUG is -3.26; for GACCAAUCUGCCCUCAGAGCUCGGGAACAUCUUCGGAUGCAGAGGAGGCAGGCUUCGGUGGCGCGAUAGCGCCAACGUCCUCAACCUCCAAUGCAUCCCACCACAUGAUGAUGCAUGAAGAGCCUUGGUUUUUUG it is -1.25.
As for GACCAAUCUGCCCUCAGAGCUCGGGAACAUCUUCGGAUGCAGAGGAGGCAGGCUUCGGUGGAGCGAUAGCGCCAACGUCCUCAACCUCCAAUGCAUCCCACCACAUGAUGAUGCCUGAAGAGCCUUGGUUUUUUG, the “polymerase ribozyme fitness (log ratio)” value was -2.63.
For the variant GACCAAUCUGCCCUCAGAGCUCGGGAACAUCUUCGGAUGCAGAGGAGGCAGGUUUCGGUGGCGCGAUAGCGCCAACGUCCUCAACCUCCAAUGCAUCCCACCACAUGAUGAUGCCUGAAGAGCCUUGGUUUUUUG, the “polymerase ribozyme fitness (log ratio)” value is -2.07.
For the variant GACCAAUCUGCCCUCAGAGCUCGUGAACAUCUUCGGAUGCAGAGGAGGCAGGCUUCGGUGGCGCGAUAGCGCCAACGUCCUCAACCUCCAAUGCAUCCCACCACAUGAUGAUGCCUGAGGAGCCUUGGUUUUUUG, the “polymerase ribozyme fitness (log ratio)” value was -6.17.
The result for GACCAAUCUGCCCUCAGAGCUCGUGAACAUCUUCGGAUGCAGAGGGGACAGGCUUCGGUGGCGCGAUAGAGCCAACGUCCUCAACCUCCAAUGCAUCCCACCACAUGAUGGUGCCUGAAGAGCCUUGGUUUUUUG reads -6.69.
The result for GACCAAUCUGCCCUCAGAGCUCGGGAACAUCUUCGUAUGCAGAGGAGGCAGGCUUCGGUGGCGCGAUAGCGCCAACGUCCUCAACCUCCAAUCCAUCCCACCACAUGAUGAAGCCUGAAGAGCCUUGGUUUUUUG reads -5.3; that for GACCAAUCUGCCCUCAGAGCUCGGGAACAUCUUCGGAAGCAGAGGAGGCAGGCUACGGUGGCGCGAUAGCGCCAACGUCCUCAACCUCCAAUGCAUCCCACCACAUGAUGAUGCCUGAAGAGCCUUGGUUUUUUG, -2.85.
The result for GACCAAUCUGCCCUCAGAGCUCGUGAACAUCUUCGGAUGCGGCGGAGGCAGGCUUCGGUGGCGCGAUAGCGCCAACGUCCUCAACCUCCAAUGCAACCCACUACAUGAUGUUGCCUGAAGAGCCUUGGUUUUUUG reads -6.49; that for GACCAAUCUGCCCUCAGAGCUCGGGAACAUCUUCGGAUGCAGAGGAGGCAGGCUUCGGUGGCGCGAUAUCGCCAACGUCCUCAACCUCCAAUGCAUCCCUCCACAUGAUGAUGCCUGAAGAGCCUUGGUUUUUUG, -1.09.
Turning to GACCAAUCUGCCCUCAGAGCUCGGGAACAUCUUCGGAUGCAGAGGAGGCAGGCUUCGGUGGCGCGAUAGCGCCAACAUCCUCAACCUCCAAUGCAUCCCACCACAUGAUGAUGCUUGAAGAGCCUUGGUUUUUUG, the “polymerase ribozyme fitness (log ratio)” value is -2.98.
The figure for GACCAAUCUGCCCUCAGAGCUCGGGAACAUCUUCGGAUGCAGAGGAGGCAGGCUUCGGUGGCGCGAUAGCGCCAACGUCCUCAACCUCCAAUGCAUCCCACCACAUGAUGAUGCCUGAAGAGCCUUGAUGUUUUG is -4.18.
As for GACCAAUCUGCCCUCAGAGCUCGGGAACAUCUUCGGAUGCAGAGGAGGCAGGCUUCGGUGGCGCGAUAGCGCCAACGUCCUCAACCUCCAAUGCAUCCCACCACAUGAUAAUGCCGGAAGAGCAUUGGUUUUUUG, the “polymerase ribozyme fitness (log ratio)” value is -6.51.
The figure for GACCAAUCUGCCCUCAGAGCUCGUGAACAUCUUCGGAUGCAGAGGAGGCAGGCUUCGGUGGCGCGAUAGCGCCAACGUCCUCAACCUCCAAUGCAUCCCACCACAUGAUGAUGCCUGAAGAGCUUUGGUUUUUUG is -5.45; for GACCAAUCUGCCCUCAGAGCUCGUGAACAUCUUCGGAUGCAGAGGAGGCAGGCUUCGGUGGCGCGAUAGCGCCAACGUCCUCAACCUCCAAUGCAUCCCACCACAUGAUGAUGCCUGAAGAGCGUUGGUUUUUUG it is -5.19; for GACCAAUCUGCCCUCAGAGCUCGGGAACAUCUUCGGAUGCAGAGGAGGCAGGCUUCGGUGGCUCGAUAGCGCCAACGUCCUCAACCUCCAAUGCAUCCCACCACAUGAUGAUGCCUGAAGAGCCUUGGUUUUUUG it is -3.19.
Regarding GACCAAUCUGCCCUCAGAGCUCGGGAACAUCUUCGGAUGCAGAGGAGGCAGACUUCGGUGGCGCGAUAGCGCCAACGUCCUCAACCUCCAAUGCAUCCCACCACAUGAUGAUGCCUGAAGAGCCUUGGUUUUUUG, the “polymerase ribozyme fitness (log ratio)” value is -1.78.
The result for GACCAAUCUGCCCUCAGAGCUCGGGAACAUCUUCGGAUGCAGAGGAGGCAGGCUUCGGUGGUGCGAUAGCGCCAACGUCCUCAACCUCCAAUGCAUCCCACCAAAUGAUGAUGCAUGAAGAGCCUUGGUUUUUUC reads -4.17; that for GACCAAUCUGCCCUCAGAGCUCGGGAACAUCUUCGGAUGCAGAGGAGGCAGGCUUCGGUGGCGCGAUAGCGCCAACGUCCUCAACCUCCAAUGCAUCCCACCACAUGAUGAUGCCUGAAGAGCCUUGGUUAUUUG, -2.25; that for GACCAAUCUGCCCUCAGAGCUCGUGAACAUCUUCGGAUACAGAGGAGGCAGGCUUCGGUGGCGCGAUAGCGCCAACGUCCUCAACCUCCAAUGCAUCCCACCACAUGAUGAUGCCUGAAGAGCCUUGGUUUUUUG, -7.92.
The result for GACCAAUCUGCCCUCAGAGCUCGGGAACAUCUUCGGAUGCAGAGGACGCAGGCUUCGGUGGCGCGAUAGCGCCAACGUCCUCAACCUCCUAUGCAUCCCACCACAUGAUGAUGCCUGAAGAGCCUUGGUUUUUUG reads -4.32.
The figure for GACCAAUCUGCCCUCAGAGCUCGGGAACAUCUUCGGAUGCAGAGGAGGCAGGCUUCGGUGGCCCGAUAGCUCCAACGUCCUCAACCUCCAAUGCAUCCCACCACAUGAUGAUGCCUGAAGAGGCUUGGUUUUUUG is -5.78; for GACCAAUCUGCCCUCAGAGCUCGGGAACAUCUUCGGAUGCAGAGGAGGCAGGCUUCGGUGGCGCGAUAGCGUCAACGUCCUCAACCUACAAUUCAUCCCACCACAUGAUGAUGCCUGAAGAGCCUUGGUUUUUUG it is -5.29.
GACCAAUCUGCCCUCAGAGCUCGGGAACAUCUUCGGAUGCAGAGGAGGCAGGCUUCGGUGGCGCGAUAGCGCCAACGUCCUCAACCUGCAAUGCAUCCCACCACAUGAUGAUGCCUGAAGAGACUUGGAUUUUUG: the “polymerase ribozyme fitness (log ratio)” value was -4.43.
The result for GACCAAUCUGCCCUCAGAGCUCGGGAACAUCUUCGGAUGCAGAGGAGGCAGGCUUCGGUGGCGCGAUAGCGCCAACGUCCUCAACCUUCAAUGCCUCCCACCACAUGAUGAUGCCUGAAGAGCAUUGGUUUUAUG reads -0.316; that for GACCAAUCUGCCCUCAGAGCUCGUGAACAUCUUCGGAUGCAGAGGAGGCAGGCUUUGGUGGCGCGAUAGCGCCAACGUCCUCAACCUCCAAUGCAUCCCACCACAUGAUGAUGCCUGAAGAGCCUUGGUUUUUUG, -4.09; that for GACCAAUCUGCCCUCAGAGCUCGGGAACAUCUUCGGAUGCAUAGAAGGCAGGCUUCGGUGGCGCGAUAGCGGCAACGUCCUCAACCUACAAUGCAUCCCACCACAUGAUGAUGCCUGAAGGGCCCUGGUUUUUUG, -2.21.
GACCAAUCUGCCCUCAGAGCUCGUGAACAUCUUCGGAUGUAGAGGAGGCAGGCUUCGGUGGCGCGAUAGCGCCAACGUCCUCAACCUCCAAUGCAUCCCACCACAUGAUGAUGCCUGAAGAGCCUUGGUUUUUUG: the “polymerase ribozyme fitness (log ratio)” value was -6.96.
